Measured values taken from patent publication KR20220054080A (dated 2022).
Like-named read-outs stand apart in the source and are kept apart here.

B1: SA3755 (antibody, V domains shown)
VH: QMQLVESGGGVVQPGGSLRLSCAASGFTFDDHTMHWVRQAPGKGLEWVSLISWDGGSTYYADSVKGRFTISRDNSKNSLYLQMNSLRAEDTAVYYCTRDASRRPGDGGYDFDVWGQGTQVTVSS
VL: QAVVTQEPSLTVSPGGTVTLTCGSSTGTVTRGHWPYWFQQKPGQAPRTLIYDTDNKHSWTPARFSGSLLGGKAALTLSGAQPEDEADYYCLLSYSDSRVFGTGTKVTVL
B2: SA4079 (antibody, V domains shown)
VH: QMQLVESGGGVVQPGGSLRLSCAASGFTFDDHTMHWVRQAPGKGLEWVSLISWDGGSTYYADSVKGRFTISRDNSKNSLYLQMNSLRAEDTAVYYCTRDASRRPGDGGYDFDVWGQGTQVTVSS
VL: QAVVTQEPSLTVSPGGTATLTCGSSTGTVTRGHWPYWFQQKPGQAPRTLIYDTDTKHSWTPARFSGSLLGGKAALTLSGAQPEDEADYYCLLSYSDSRVFGTGTKVTVL
B3: SA3779 (antibody, V domains shown)
VH: QVQLVESGGGVVQPGRSLRLSCAASGFTFSSYAMHWVRQAPGKGLEWVAVISYDGSNKYYADSAKGRFTISRDNSKNTLYLQMNSLRAEDTAVYYCARRGHYYDSSGYLYWGHGTLITVSS
VL: DIQMTQSPSSLSASVGDRVTITCRASQRIATYLHWYQQKPGRAPKLLIYAASSLQTGVPSRFSGSGSGTDFTLTINSLQPEDFATYYCQQSYAIPYTFGQGTKLEIK
B4: SA3827 (antibody, V domains shown)
VH: QVQLVESGGTLVQPGRSLRLSCAASGFTFSSYAMHWVRQAPGKGLEWVAVISYDGSNKYYADSVKGRFTISRDNSKNTLYLQMNSLRAEDTAVYYCARRGHYYDSSGFLYWGQGTLVTVSS
VL: DIQMTQSPSSLSASVGDRVTITCRASQSISTYLSWYQQKPGKAPKLLIYAASNLQSGVPSRFSASGSGTDFTLTISSLQPEDFATYYCQQSYNTPRTFGQGTKVEIK
B5: SA4086 (antibody, V domains shown)
VH: QVQLVESGGGVVQPGRSLRLSCAASGFTFSSYAMHWVRQAPGKGLEWVAVISYDGSNKYYADSAKGRFTISRDNSKNTLYLQMNSLRAEDTAVYYCARRGHYYDSSGYLYWGHGTLITVSS
VL: DIQMTQSPSSLSASVGDRVTITCRASQSISTYLSWYQQKPGKAPKLLIYAASNLQSGVPSRFSASGSGTDFTLTISSLQPEDFATYYCQQSYNTPRTFGQGTKVEIK
B6: SA4114 (antibody, V domains shown)
VH: QVQLVESGGTLVQPGRSLRLSCAASGFTFSSYAMHWVRQAPGKGLEWVAVISYDGSNKYYADSVKGRFTISRDNSKNTLYLQMNSLRAEDTAVYYCARRGHYYDSSGFLYWGQGTLVTVSS
VL: DIQMTQSPSSLSASVGDRVTITCRAGQSIDNYLNWYQQKPGKAPKLLIYAASTLHSGVPSRFSGSGSGTDFTLTISSLQPDDFATYYCQQSYSIPRTFGQGTKLEIK
B7: SA3838 (antibody, V domains shown)
VH: QVQLVESGAEVKKPGASVRVSCKISGYIFTELSIHWVRQAPGKGLEWMGGFDPEEGKTIYAQKFQGRVTMTEDTSTDTAYMELSSLRSEDTAVYYCAKIGHLGDFWYWGQGTLITVSS
VL: QSALTQPASVSGSPGQSITISCTGTTSDIGSYDYVSWYQQHPGKAPKLIIYGVTRRPSGVSNRFSGSKSGNTASLTISRLLTEDEAEYYCATYTSSATYVFGTGTKVTVL
B8: SA4118 (antibody, V domains shown)
VH: QVQLVESGAEVKKPGASVRVSCKISGYIFTELSIHWVRQAPGKGLEWMGGFDPEEGKTIYAQKFQGRVTMTEDTSTDTAYMELSSLRSEDTAVYYCAKIGHLGDFWYWGQGTLITVSS
VL: QSALTQPASVSGSPGQSITISCTGTTSDIGSYDYVSWYQQHPGKAPKLIIYGVTRRPSGVSNRFSGSKSGNTASLTISGLQAEDEANYYCSSCTRSSTYVFGTGTKVTVL

Legend:
[1] = target: T1, SARS-CoV-2 스파이크 S1-mFc (SARS-CoV-2, UniProt P0DTC2 16-685); assay: competition ELISA: S1-mFc on coated ACE2-His
T1 construct: range 16-685

[2] = target: T2, SARS-CoV-2 RBD-mFc (SARS-CoV-2, UniProt P0DTC2 319-541); assay: flow cytometry competition: RBD-mFc on HEK293E/ACE2 cells
T2 construct: range 319-541

[3] = target: T3, SARS-CoV-2 RBD-hFc (SARS-CoV-2, UniProt P0DTC2 319-541); assay: cell-based or functional assay
[4] = target: T4, SARS-CoV 스파이크 [change] (#40150-V08B1, Sino Biological) (SARS-CoV, UniProt P59594 14-667); assay: ELISA, coated S1-His
[5] = target: T2, SARS-CoV-2 RBD-mFc; assay: Octet QKe BLI, 1:1 global fit
[6] = target: T1, SARS-CoV-2 스파이크 S1-mFc; assay: competition ELISA: S1-mFc on coated ACE2-His; remark: listed apart in the source
[7] = target: T2, SARS-CoV-2 RBD-mFc; assay: competition ELISA: RBD-mFc on coated ACE2-His
[8] = target: T1, SARS-CoV-2 스파이크 S1-mFc
[9] = target: T2, SARS-CoV-2 RBD-mFc
[10] = target: T5, SARS-CoV-2 spike protein on live SARS-CoV-2 virus (SARS-CoV-2, UniProt P0DTC2 14-1273); assay: cell-based or functional assay
[11] = target: T2, SARS-CoV-2 RBD-mFc; assay: competition ELISA: RBD-mFc on coated ACE2-His; remark: listed apart in the source
[12] = target: T2, SARS-CoV-2 RBD-mFc; assay: flow cytometry competition: RBD-mFc on HEK293E/ACE2 cells; remark: listed apart in the source
[13] = target: SARS-CoV RBD-His (#40150-V08B2, Sino Biological) (SARS-CoV, UniProt P59594 306-527); assay: ELISA, coated His-tagged antigen
[14] = target: T5, SARS-CoV-2 spike protein on live …; assay: cell-based or functional assay; remark: listed apart in the source
[15] = target: T2, SARS-CoV-2 RBD-mFc; remark: listed apart in the source
[16] = target: T3, SARS-CoV-2 RBD-hFc; assay: cell-based or functional assay; remark: listed apart in the source
[17] = target: T4, SARS-CoV 스파이크 [change] (#40150-V08B1, …); assay: ELISA, coated S1-His, as Example 5.2
[18] = target: T2, SARS-CoV-2 RBD-mFc; assay: Octet QKe BLI, 1:1 global fit; remark: listed apart in the source

Row | Binder | IC50 [1] | IC50 [2] | IC50, 세포내 유입(internalization) 억제, HEK293E/ACE2-GFP [3] | binding result [4] | Kd [5] | koff [5] | kon [5] | IC50 [6] | IC50 [7] | IC50, live SARS-CoV-2 미세중화분석, Vero 세포, 72시간 [10] | IC50 [11] | IC50 [12] | binding result [13] | IC50, live SARS-CoV-2 미세중화분석, Vero 세포 [14] | IC50, 세포내 유입(internalization) 억제, HEK293E/ACE2-GFP [16] | binding result [17] | Kd [18] | koff [18] | kon [18] | also measured
1 | B1 | 4.67 nM | 3.09 nM | 40 nM | no binding (tested: 50 nM) | 1.06 nM | 0.000424 s⁻¹ | 399000 M⁻¹ s⁻¹ | 4.06 nM | 5.71 nM | 5.12 nM | 7.74 nM | 3.8 nM | no binding | 8.74 nM | 35.8 nM | – | – | – | – | IC50 [8]: 8.27 nM; IC50 [9]: 23.1 nM; IC50 [15]: 2.26 nM
2 | B2 | 2.71 nM | 2.35 nM | – | – | – | – | – | – | 3.62 nM | 2.74 nM | – | – | no binding | – | 40 nM | no binding | 0.154 nM | 5.73e-05 s⁻¹ | 373000 M⁻¹ s⁻¹ | –
3 | B3 | 3.59 nM | 2.65 nM | 18.9 nM | no binding (tested: 50 nM) | 1.05 nM | 0.000223 s⁻¹ | 213000 M⁻¹ s⁻¹ | 4.03 nM | 7.96 nM | 45.6 nM | 11.2 nM | 2.84 nM | no binding | 56.8 nM | 27.3 nM | – | – | – | – | –
4 | B4 | 0.9 nM | 2.71 nM | 12.9 nM | no binding (tested: 50 nM) | 0.452 nM | 0.000173 s⁻¹ | 383000 M⁻¹ s⁻¹ | 0.61 nM | 0.321 nM | 7.94 nM | 0.914 nM | 2.74 nM | no binding | 8.92 nM | 18.3 nM | – | – | – | – | –
5 | B5 | 1.28 nM | 2.47 nM | – | – | – | – | – | – | 1.24 nM | 12.4 nM | – | – | no binding | – | 27.2 nM | no binding | 0.106 nM | 4.99e-05 s⁻¹ | 471000 M⁻¹ s⁻¹ | –
6 | B6 | 1.19 nM | 2.39 nM | – | – | – | – | – | – | 0.364 nM | 12.8 nM | – | – | no binding | – | 24.1 nM | no binding | 0.0899 nM | 3.89e-05 s⁻¹ | 433000 M⁻¹ s⁻¹ | –
7 | B7 | 2.25 nM | 2.99 nM | 36.1 nM | no binding (tested: 50 nM) | – | – | – | 1.2 nM | 1.62 nM | 13.5 nM | 2.2 nM | 3.38 nM | no binding | 9.4 nM | 42.8 nM | – | – | – | – | –
8 | B8 | 2.28 nM | 2.71 nM | – | – | – | – | – | – | 0.709 nM | 8.29 nM | – | – | no binding | – | 31.4 nM | no binding | 0.0296 nM | 2.05e-05 s⁻¹ | 695000 M⁻¹ s⁻¹ | –
